B1: Trap R: NRP1 trap a1a2-b1b2-c, aa about 22-856, Y297A; SEQ ID NOs 69/70 (protein)
chain: FRNDKCGDTIKIESPGYLTSPGYPHSYHPSEKCEWLIQAPDPYQRIMINFNPHFDLEDRDCKYDYVEVFDGENENGHFRGKFCGKIAPPPVVSSGPFLFIKFVSDYETHGAGFSIRYELFKRGPECSQNYTTPSGVIKSPGFPEKYPNSLECTYIVFAPKMSEIILEFESFDLEPDSNPPGGMFCRYDRLEIWDGFPDVGPHIGRYCGQKTPGRIRSSSGILSMVFYTDSAIAKEGFSANYSVLQSSVSEDFKCMEALGMESGEIHSDQITASSQASTNWSAERSRLNYPENGWTPGEDSYREWIQVDLGLLRFVTAVGTQGAISKETKKKYYVKTYKIDVSSNGEDWITIKEGNKPVLFQGNTNPTDVVVAVFPKPLITRFVRIKPATWETGISMRFEVYGCKITDYPCSGMLGMVSGLISDSQITSSNQGDRNWMPENIRLVTSRSGWALPPAPHSYINEWLQIDLGEEKIVRGIIIQGGKHRENKVFMRKFKIGYSNNGSDWKMIMDDSKRKAKSFEGNNNYDTPELRTFPALSTRFIRIYPERATHGGLGLRMELLGCEVEAPTAGPTTPNGNLVDECDDDQANCHSGTGDDFQLTGGTTVLATEKPTVIDSTIQSEFPTYGFNCEFGWGSHKTFCHWEHDNHVQLKWSVLTSKTGPIQDHTGDGNFIYSQADENQKGKVARLVSPVVYSQNSAHCMTFWYHMSGSHVGTLRVKLRYQKPEEYDQLVWMAIGHQGDHWKEGRVLLHKSLKLYQVIFEGEIGKGNLGGIAVDDISINNHISQEDCAKPADLDKKNPEIKIDETGSTPGYEGEGEGDKNISRKPGNVLKTLDPRSGSKENLYFQG
B2: Trap Q: NRP1 trap a1a2-b1b2, aa about 22-583, Y297A; SEQ ID NOs 79/80 (protein)
chain: FRNDKCGDTIKIESPGYLTSPGYPHSYHPSEKCEWLIQAPDPYQRIMINFNPHFDLEDRDCKYDYVEVFDGENENGHFRGKFCGKIAPPPVVSSGPFLFIKFVSDYETHGAGFSIRYELFKRGPECSQNYTTPSGVIKSPGFPEKYPNSLECTYIVFAPKMSEIILEFESFDLEPDSNPPGGMFCRYDRLEIWDGFPDVGPHIGRYCGQKTPGRIRSSSGILSMVFYTDSAIAKEGFSANYSVLQSSVSEDFKCMEALGMESGEIHSDQITASSQASTNWSAERSRLNYPENGWTPGEDSYREWIQVDLGLLRFVTAVGTQGAISKETKKKYYVKTYKIDVSSNGEDWITIKEGNKPVLFQGNTNPTDVVVAVFPKPLITRFVRIKPATWETGISMRFEVYGCKITDYPCSGMLGMVSGLISDSQITSSNQGDRNWMPENIRLVTSRSGWALPPAPHSYINEWLQIDLGEEKIVRGIIIQGGKHRENKVFMRKFKIGYSNNGSDWKMIMDDSKRKAKSFEGNNNYDTPELRTFPALSTRFIRIYPERATHGGLGLRMELLGCRSGSKENLYFQG
B3: Trap P: NRP1 trap a1a2-b1, aa about 22-424, Y297A; SEQ ID NOs 83/84 (protein)
chain: FRNDKCGDTIKIESPGYLTSPGYPHSYHPSEKCEWLIQAPDPYQRIMINFNPHFDLEDRDCKYDYVEVFDGENENGHFRGKFCGKIAPPPVVSSGPFLFIKFVSDYETHGAGFSIRYELFKRGPECSQNYTTPSGVIKSPGFPEKYPNSLECTYIVFAPKMSEIILEFESFDLEPDSNPPGGMFCRYDRLEIWDGFPDVGPHIGRYCGQKTPGRIRSSSGILSMVFYTDSAIAKEGFSANYSVLQSSVSEDFKCMEALGMESGEIHSDQITASSQASTNWSAERSRLNYPENGWTPGEDSYREWIQVDLGLLRFVTAVGTQGAISKETKKKYYVKTYKIDVSSNGEDWITIKEGNKPVLFQGNTNPTDVVVAVFPKPLITRFVRIKPATWETGISMRFEVYGCRSGSKENLYFQG
B4: Trap X: NRP1 trap a1a2-b1-c, aa about 22-430 and 584-856, Y297A; SEQ ID NOs 89/90 (protein)
chain: FRNDKCGDTIKIESPGYLTSPGYPHSYHPSEKCEWLIQAPDPYQRIMINFNPHFDLEDRDCKYDYVEVFDGENENGHFRGKFCGKIAPPPVVSSGPFLFIKFVSDYETHGAGFSIRYELFKRGPECSQNYTTPSGVIKSPGFPEKYPNSLECTYIVFAPKMSEIILEFESFDLEPDSNPPGGMFCRYDRLEIWDGFPDVGPHIGRYCGQKTPGRIRSSSGILSMVFYTDSAIAKEGFSANYSVLQSSVSEDFKCMEALGMESGEIHSDQITASSQASTNWSAERSRLNYPENGWTPGEDSYREWIQVDLGLLRFVTAVGTQGAISKETKKKYYVKTYKIDVSSNGEDWITIKEGNKPVLFQGNTNPTDVVVAVFPKPLITRFVRIKPATWETGISMRFEVYGCKITDYPEVEAPTAGPTTPNGNLVDECDDDQANCHSGTGDDFQLTGGTTVLATEKPTVIDSTIQSEFPTYGFNCEFGWGSHKTFCHWEHDNHVQLKWSVLTSKTGPIQDHTGDGNFIYSQADENQKGKVARLVSPVVYSQNSAHCMTFWYHMSGSHVGTLRVKLRYQKPEEYDQLVWMAIGHQGDHWKEGRVLLHKSLKLYQVIFEGEIGKGNLGGIAVDDISINNHISQEDCAKPADLDKKNPEIKIDETGSTPGYEGEGEGDKNISRKPGNVLKTLDPRSGSKENLYFQG
B5: Trap Y: NRP1 trap a1a2-c, aa about 22-274 and 584-856; SEQ ID NOs 91/92 (protein)
chain: FRNDKCGDTIKIESPGYLTSPGYPHSYHPSEKCEWLIQAPDPYQRIMINFNPHFDLEDRDCKYDYVEVFDGENENGHFRGKFCGKIAPPPVVSSGPFLFIKFVSDYETHGAGFSIRYELFKRGPECSQNYTTPSGVIKSPGFPEKYPNSLECTYIVFAPKMSEIILEFESFDLEPDSNPPGGMFCRYDRLEIWDGFPDVGPHIGRYCGQKTPGRIRSSSGILSMVFYTDSAIAKEGFSANYSVLQSSVSEDFKEVEAPTAGPTTPNGNLVDECDDDQANCHSGTGDDFQLTGGTTVLATEKPTVIDSTIQSEFPTYGFNCEFGWGSHKTFCHWEHDNHVQLKWSVLTSKTGPIQDHTGDGNFIYSQADENQKGKVARLVSPVVYSQNSAHCMTFWYHMSGSHVGTLRVKLRYQKPEEYDQLVWMAIGHQGDHWKEGRVLLHKSLKLYQVIFEGEIGKGNLGGIAVDDISINNHISQEDCAKPADLDKKNPEIKIDETGSTPGYEGEGEGDKNISRKPGNVLKTLDPRSGSKENLYFQG
B6: Trap AF: NRP1 trap a1a2b2c, aa 1-280 and 431-856 incl. SP; SEQ ID NOs 55/56 (protein)
chain: MERGLPLLCAVLALVLAPAGAFRNDKCGDTIKIESPGYLTSPGYPHSYHPSEKCEWLIQAPDPYQRIMINFNPHFDLEDRDCKYDYVEVFDGENENGHFRGKFCGKIAPPPVVSSGPFLFIKFVSDYETHGAGFSIRYELFKRGPECSQNYTTPSGVIKSPGFPEKYPNSLECTYIVFAPKMSEIILEFESFDLEPDSNPPGGMFCRYDRLEIWDGFPDVGPHIGRYCGQKTPGRIRSSSGILSMVFYTDSAIAKEGFSANYSVLQSSVSEDFKKITDYPCSGMLGMVSGLISDSQITSSNQGDRNWMPENIRLVTSRSGWALPPAPHSYINEWLQIDLGEEKIVRGIIIQGGKHRENKVFMRKFKIGYSNNGSDWKMIMDDSKRKAKSFEGNNNYDTPELRTFPALSTRFIRIYPERATHGGLGLRMELLGCEVEAPTAGPTTPNGNLVDECDDDQANCHSGTGDDFQLTGGTTVLATEKPTVIDSTIQSEFPTYGFNCEFGWGSHKTFCHWEHDNHVQLKWSVLTSKTGPIQDHTGDGNFIYSQADENQKGKVARLVSPVVYSQNSAHCMTFWYHMSGSHVGTLRVKLRYQKPEEYDQLVWMAIGHQGDHWKEGRVLLHKSLKLYQVIFEGEIGKGNLGGIAVDDISINNHISQEDCAKPADLDKKNPEIKIDETGSTPGYEGEGEGDKNISRKPGNVLKTLDPRSGSKENLYFQG
B7: Trap AG: NRP1 trap a1a2b2, aa about 22-280, 431-583 and 631-700; SEQ ID NOs 57/58 (protein)
chain: MERGLPLLCAVLALVLAPAGAFRNDKCGDTIKIESPGYLTSPGYPHSYHPSEKCEWLIQAPDPYQRIMINFNPHFDLEDRDCKYDYVEVFDGENENGHFRGKFCGKIAPPPVVSSGPFLFIKFVSDYETHGAGFSIRYELFKRGPECSQNYTTPSGVIKSPGFPEKYPNSLECTYIVFAPKMSEIILEFESFDLEPDSNPPGGMFCRYDRLEIWDGFPDVGPHIGRYCGQKTPGRIRSSSGILSMVFYTDSAIAKEGFSANYSVLQSSVSEDFKKITDYPCSGMLGMVSGLISDSQITSSNQGDRNWMPENIRLVTSRSGWALPPAPHSYINEWLQIDLGEEKIVRGIIIQGGKHRENKVFMRKFKIGYSNNGSDWKMIMDDSKRKAKSFEGNNNYDTPELRTFPALSTRFIRIYPERATHGGLGLRMELLGCRSGSKENLYFQG

System: SEMA3A-FC
Assay: Sema 3A binding assay on plate-coated purified traps (saturation curves, KD)
Conditions: for Binding to SEMA3A: Table 2, Yes/No; for Kd / SEMA 3A-FC binding (dissociation constant): traps coated on plate, overnight incubation; for Kd: read-out: SEMA 3A-FC binding (dissociation constant)
Method: Sema 3A and AP-VEGF165 binding assays. Saturation curves for the determinations of KD of binding to SEMA 3A or VEGF165 were obtained as follow. Wells of high protein binding 96 well plates (Maxisorp, Nunc) were coated with purified traps diluted in PBS and blocked afterward with binding buffer (PBS containing 2% casein and 0.05% Tween 20). The SEMA3A-FC (R&D systems) or AP-VEGF165 ligands were diluted in binding buffer over an extensive range of concentrations and added to wells. Following an overnight incubation, wells were washed with PBS containing 0.05% tween. Bound SEMA3a-FC was detected using an HRP-linked anti-Human IgG (Biorad) and ECL substrate (Pierce). Alternatively, bound AP-VEGF165 was detected using CPD star substrate (Roche). The Chemiluminescent signal was acquired on a TECAN reader. Dissociation constant (KD) were determined by non-linear curve fitting using the Graph Pad prism software.
The relative affinity of traps of the present invention to SEMA3A and VEGF has been assessed. Traps were prepared as described in Example 8.

| Molecule | Binding to SEMA3A | Kd [nM] | SEMA 3A-FC binding (dissociation constant) |
| --- | --- | --- | --- |
| Iso-b: Secreted NRP1 isoform-b/S12; 644 amino acids; a1a2-b1b2-c (in part); SEQ ID NO: 44 | Yes | – | – |
| Iso-c: Secreted NRP1 isoform-c/Siv; 609 amino acids; a1a2-b1b2-c (in part); SEQ ID NO: 45 | Yes | – | – |
| Iso-d: Secreted NRP1 isoform S11; 704 amino acids; a1a2-b1b2-c (in part); SEQ ID NO: 46 | Yes | – | – |
| Trap O: NRP1 trap a1a2-b1b2, aa about 22-583; SEQ ID NOs 77/78 | Yes | – | – |
| B1 | Yes | 6.15 | – |
| B2 | No | – | No binding |
| B3 | No | – | No binding |
| B4 | No | – | No binding |
| B5 | No | > 750 | – |
| B6 | No | – | No binding |
| B7 | Yes | – | – |

Reference: patent publication US12031137B2, “Compositions comprising SASP modulators and senescence attenuators and uses thereof for modulating cellular senescence” (RSEM, LIMITED PARTNERSHIP, priority 2016, dated 2024)
